# Data published in US20220396819A1, “METHOD FOR PRODUCING PEPTIDE HAVING PHYSIOLOGICAL ACTIVITY, AND PEPTIDE COMPRISING SHORT LINKER” (priority 2019, published 2022).
# B1: rhTPO: recombinant human TPO (rhTPO, Peprotech) (protein)
# chain: SPAPPACDLRVLSKLLRDSHVLHSRLSQCPEVHPLPTPVLLPAVDFSLGEWKTQMEETKAQDILGAVTLLLEGVMAARGQLGPTCLSSLLGQLSGQVRLLLGALQSLLGTQLPPQGRTTAHKDPNAIFLSFQHLLRGKVRFLMLVGGSTLCVRRAPPTTAVPSRTSLVLTLNEL
# Assays:
# HEL cells [1] = assay: Thrombopoietin-like activity, CREB phosphorylation levels in HEL cells (Phospho-CREB (Ser133) ELISA); type: cell-based, human; details: dimer peptide 20-40 ng/mL or rhTPO 100 ng/mL, 20 minutes, Mock = PBS, FIG. 90
# Protocol: The thrombopoietin-like activity of the TPO-PAS dimer peptide variant was evaluated by quantification of CREB phosphorylation levels in HEL cells, a human leukemia-derived blood cell line. 200,000 HEL cells were cultured in RPMI 1640 medium without FBS (Thermo Fisher Scientific) for 24 hours and starved. The cells were stimulated for 20 minutes in RPMI 1640 medium supplemented with 100 ng/mL recombinant human TPO (rhTPO, Peprotech) or a culture supernatant containing each dimer peptide of TPO2-PAS8, TPO2-PAS49, TPO2-PAS100, or TPO2-GS8 diluted to a final concentration of 20-40 ng/mL. As a negative control, PBS was added, and stimulation was performed for 20 minutes (Mock group). After removing the medium and washing the cells once with PBS, the cells were lysed by adding 100 μL of Lysis buffer 17 (R&D Systems) supplemented with Protease inhibitor cocktail (Nacalai Tesque). The lysate solution was centrifuged at 14,000 G for 5 minutes to obtain the supernatant as lysate. Note that TPO2-PAS8 was obtained according to the method described in Example 23.
# Phospho-CREB (Ser133) and Total CREB ELISA kit (RayBio) were used to quantify phosphorylated CREB (pCREB) levels in the lysates. […] Phosphorylation levels were quantified by adding 50 μL of Stop solution and measuring the absorbance at a wavelength of 450 nm on a microplate.
# HEL cells [2] = assay: Signal characteristics, Proteome Profiler Human Phospho-Kinase Array Kit, HEL cells; type: cell-based; details: 100 ng/mL rhTPO or culture supernatant 1/100 to 1/1000, 20 minutes, FIG. 43
# Protocol: The signal characteristics of the TPO-PAS dimer peptide were evaluated using Proteome Profiler Human Phospho-Kinase Array Kit (R&D Systems).
# 1,000,000 HEL cells were cultured in RPMI 1640 medium without FBS (Thermo Fisher Scientific) for 24 hours and starved. The cells were stimulated for 20 minutes in RPMI 1640 medium supplemented with 100 ng/mL recombinant human TPO (rhTPO, Peprotech) or a culture supernatant containing TPO2-PAS8 at a dilution of 1/100 to 1/1000. As a negative control, PBS was added, and stimulation was performed for 20 minutes (Mock group). After removing the medium and washing the cells once with PBS, the cells were lysed by adding 200 μL of Lysis buffer 17 (R&D Systems) supplemented with Protease inhibitor cocktail (Nacalai Tesque). The lysate solution was centrifuged at 14,000 G for 5 minutes to obtain the supernatant as lysate.
# The lysate was analyzed using Proteome Profiler Human Phospho-Kinase Array Kit. Amersham Imager 600 (GE Healthcare) was used to detect chemiluminescence. The chemiluminescence intensity of the dots was quantified using ImageJ. […] The signal pathway stimulated by rhTPO is mainly the JAK2/Stat3,5 pathway, and all of the proteins with increased phosphorylation levels are included in the pathway.
molecule,measurement,setting,value
B1,pCREB level (relative CREB phosphorylation level),HEL cells [1],143%
same,phosphorylation levels of signal proteins compared with PBS (Mock group),HEL cells [2],"increased in phosphorylation levels of Erk, CREB, Stat3, Stat5a, and Stat5b"
